Measured values from paper PMC5006643.

Each substance was assayed against pV2α-Tys, tyrosine-sulfated 18-mer V2 mimetic peptide (aa. 168-185 of HIV-1 BaL gp120) (HIV-1 (isolate BaL)) (assay: SPR).

| Substance | Kd [nM] | koff [s⁻¹] | kon [M⁻¹ s⁻¹] |
| --- | --- | --- | --- |
| recombinant monomeric gp120 (HIV-1 strain BaL) (natural protein) | 79.1 | 0.00189 | 23900 |
| gp120 (BaL) pre-complexed with the CD4 mimic CD4-M48U | 69.1 | 0.00334 | 48300 |
| BG505 SOSIP.664 trimer pre-treated with the CD4 mimic CD4-M48U (from UniProt Q2N0S6 1-860; Q2N0S6 1-860) (complex) | 161 | 0.005 | 31000 |
